What was measured:
[1] = target: T1, Streptococcus pyogenes type II-A Cas1 R5A (Streptococcus pyogenes, UniProt Q99ZW1 1-289, R5A); experiment: SEC; analytical SEC on Superdex 200 Increase 10/300 GL in SEC buffer (20 mM HEPES pH 7.5, 500 mM NaCl, 5% v/v glycerol, 5 mM DTT) at 4 °C; Cas1 variant 15.0 uM (2 equiv.) mixed with Cas2 7.5 uM, incubated 1 h at 4 °C before injection; fractions on SDS-PAGE, Coomassie; conditions: both partners purified
T1 construct: Cas1 of the Streptococcus pyogenes (SF370) type II-A CRISPR-Cas system with R5A; source: E. coli Rosetta 2(DE3) BL21, purified (Ni-NTA, SUMO protease, HiTrap Heparin, Superdex 200)
T1 sequence (looked up): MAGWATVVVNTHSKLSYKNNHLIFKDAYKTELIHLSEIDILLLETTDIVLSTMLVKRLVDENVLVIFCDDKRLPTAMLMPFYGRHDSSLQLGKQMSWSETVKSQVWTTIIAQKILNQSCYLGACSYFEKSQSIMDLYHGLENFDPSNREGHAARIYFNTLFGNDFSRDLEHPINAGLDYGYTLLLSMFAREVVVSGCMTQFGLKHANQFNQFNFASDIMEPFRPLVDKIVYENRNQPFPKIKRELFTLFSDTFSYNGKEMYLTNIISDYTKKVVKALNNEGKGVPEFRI

[2] = target: T2, Streptococcus pyogenes type II-A Cas1 (wild type) (Streptococcus pyogenes, UniProt Q99ZW1 1-289); experiment: as above; conditions: both partners purified
T2 construct: Cas1 of the Streptococcus pyogenes (SF370) type II-A CRISPR-Cas system; I surmise that one is the wild type; also called wt; source: E. coli Rosetta 2(DE3) BL21, purified (Ni-NTA, SUMO protease, HiTrap Heparin, Superdex 200)
T2 sequence (looked up): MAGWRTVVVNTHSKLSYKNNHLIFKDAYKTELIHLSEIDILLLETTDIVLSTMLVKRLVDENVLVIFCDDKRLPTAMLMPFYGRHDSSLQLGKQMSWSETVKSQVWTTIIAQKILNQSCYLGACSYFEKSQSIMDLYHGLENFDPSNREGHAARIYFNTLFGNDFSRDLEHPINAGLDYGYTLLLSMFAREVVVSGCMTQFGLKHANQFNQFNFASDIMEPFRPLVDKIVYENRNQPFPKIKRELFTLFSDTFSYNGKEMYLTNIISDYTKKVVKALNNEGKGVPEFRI

B1: Streptococcus pyogenes type II-A Cas2 (natural protein, UniProt Q99ZW0 1-113, looked up)
chain: MSYRYMRMILMFDMPTDTAEERKAYRKFRKFLLSEGFIMHQFSIYSKLLLNNTANNAMIGRLREHNPNKGNITLLTVTEKQFARMIYLHGERNNCIANSDERLVFLGEAFDES
notes: Cas2 of the Streptococcus pyogenes (SF370) type II-A CRISPR-Cas system; source: E. coli Rosetta 2(DE3) BL21, purified (Ni-NTA, SUMO protease, HiTrap Heparin, Superdex 200)
binding result [1]: binds | binding result [2]: binds
